Residue numbers refer to the chain shown, from its start. Names may count otherwise.
Legend:
[1] = biological target: the molecule itself; test: single-molecule fluorescence DNA-stretching assay (HiLo/TIRF microscopy); 42 kb DNA with a single parS tethered at both ends, SxG stain; 0.3 nM ParB^TMR in imaging buffer (40 mM Tris-HCl, 65 mM KCl, 2.5 mM MgCl2, 1 mM CTP); both ParB dimers loaded on the DNA
[2] = biological target: the molecule itself; test: cross-linking; BMOE cysteine cross-linking of ParB^T22C [2 uM] with ~200 bp DNA with parS [2 uM] and 1 mM CTP, room temperature, quenched with DTT, 12% SDS-PAGE
[3] = biological target: the molecule itself; test: cross-linking; BMOE (1 mM) cysteine cross-linking of ParB^S278C at 10 uM in storage buffer (50 mM Tris-HCl pH 7.5, 300 mM NaCl) without DNA, quenched with DTT, 12% SDS-PAGE

B1: TMR-labelled Bacillus subtilis ParB L5C (natural protein, UniProt P26497 1-282, looked up)
chain: MAKGCGKGINALFNQVDLSEETVEEIKIADLRPNPYQPRKHFDDEALAELKESVLQHGILQPLIVRKSLKGYDIVAGERRFRAAKLAGLDTVPAIVRELSEALMREIALLENLQREDLSPLEEAQAYDSLLKHLDLTQEQLAKRLGKSRPHIANHLRLLTLPENIQQLIAEGTLSMGHGRTLLGLKNKNKLEPLVQKVIAEQLNVRQLEQLIQQLNQNVPRETKKKEPVKDAVLKERESYLQNYFGTTVNIKRQKKKGKIEIEFFSNEDLDRILELLSERES
modifications: TMR-maleimide label on the ParB^L5C variant (labelling efficiency 70% of monomers)
notes: ParB (Spo0J) of Bacillus subtilis with L5C, expressed untagged; Untagged; also called ParB^TMR; source: E. coli BL21-Gold (DE3), purified (ammonium sulfate, Heparin, HiTrap SP, Superdex 200), labelled with TMR-maleimide
- binding result [1]: binds

B2: Bacillus subtilis ParB T22C (natural protein, UniProt P26497 1-282, looked up)
chain: B1 chain with C5L, T22C
notes: ParB (Spo0J) of Bacillus subtilis with T22C, expressed untagged; Untagged; C22 of the two chains is cross-linked by BMOE in the N-terminally closed clamp; source: E. coli BL21-Gold (DE3), purified
- binding result [2]: binds

B3: Bacillus subtilis ParB S278C (natural protein, UniProt P26497 1-282, looked up)
chain: B1 chain with C5L, S278C
notes: ParB (Spo0J) of Bacillus subtilis with S278C, expressed untagged; Untagged; C278 of the two chains is cross-linked by BMOE at the C-terminus; source: E. coli BL21-Gold (DE3), purified
- binding result [3]: binds

Reference: publication PMC10681803, “Dynamic ParB–DNA interactions initiate and maintain a partition condensate for bacterial chromosome segregation” (Nucleic Acids Research, 2023)
